# Article PMC6761100
# Biological target: Myc.His.CK1a
# Test: c-Myc immunoprecipitation (CK1a IP)
# Settings: strains cultured in LL; n = 4; parent: est. 1.0; read off a plot
row,ratio to parent,Sequence
1,0.23,"FREQUENCY (FRQ), wild type (from UniProt P19970) L488V"
2,0.97,"FREQUENCY (FRQ), wild type (from UniProt P19970) Q325N"
3,0.68,"FREQUENCY (FRQ), wild type (from UniProt P19970) Q494N"
4,0.52,"FREQUENCY (FRQ), wild type (from UniProt P19970) V320I"
